Literature values as cited in article PMC3128988.

Biological target: CD47 (Homo sapiens) (UniProt Q08722)
Chain of UniProt Q08722 (Q08722 19-323): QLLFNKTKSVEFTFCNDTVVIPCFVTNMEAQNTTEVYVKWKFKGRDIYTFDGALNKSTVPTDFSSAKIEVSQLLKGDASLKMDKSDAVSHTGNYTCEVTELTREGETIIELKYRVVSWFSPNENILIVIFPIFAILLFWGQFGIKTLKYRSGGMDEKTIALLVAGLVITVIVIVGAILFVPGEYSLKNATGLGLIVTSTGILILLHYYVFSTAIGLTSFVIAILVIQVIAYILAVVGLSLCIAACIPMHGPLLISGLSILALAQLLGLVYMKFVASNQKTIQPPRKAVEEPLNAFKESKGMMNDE

Kd: 1000 nM
Substance: SIRPα (from UniProt P78324)
